Measured values from patent US20170137855A1, “RECOMBINANT CELLS AND METHODS FOR NONPHOSPHORYLATIVE METABOLISM” (REGENTS OF THE UNIVERSITY OF MINNESOTA, priority 2015, published 2017).

System: O=CCCC=O
Experiment: Alcohol dehydrogenase YqhD, coupled assay, NADPH consumption
Type: biochemical, E. coli
Conditions: other: coupled assay, substrate from 0.1-10 mM L-arabonate, 1 mM NADPH, pH 7.5, 10 nM YqhD, 30.0 °C
Description: 2-Ketoacid decarboxylase (Kivd) and alcohol dehydrogenase (YqhD): The decarboxylase activity of Kivd was measured by a coupled enzymatic assay with AraC, AraD, and YqhD (Zhang et al., 2011. ChemSusChem 4:1068-1070). Excess AraC, AraD, and YqhD was used and the oxidation of NADPH was monitored at 340 nm. The assay mixture contained 1 mM NADPH, 1 μM AraC, 1 μM AraD, and 100 nM YqhD and 0.1-10 mM L-arabonate in assay buffer (100 mM Tris-HCl buffer, pH 7.5, 5 mM MgSO4, 0.5 mM ThDP) with a total volume of 0.1 ml. The mixture was incubated at 30° C. for one hour and 10 nM Kivd was added. The dehydrogenase activity of YqhD was assayed according to NADPH initial consumption rates in a coupled assay. The assay mixture contained 1 mM NADPH, 100 nM Kivd, 1 μM AraC, 1 μM AraD, and 0.1-10 mM L-arabonate in 100 μl of 100 mM Tris-HCl buffer (pH 7.5) with 5 mM MgSO4. The mixture was first incubated at 30° C. for one hour. Afterwards, 10 nM YqhD was added and the NADPH consumption rate was monitored.

## E. coli alcohol dehydrogenase YqhD (Escherichia coli K-12)
  Km: 1900 µM
  kcat: 45.0 s⁻¹
